Experiment [1] deals with BDBV GP on rVSV particles (Bundibugyo virus (BDBV)). Put plainly: cell-based or functional assay.
The target of experiment [2] is EBOV GP on rVSV particles (Ebola virus (EBOV)) (UniProt Q05320). Put plainly: cell-based or functional assay.
In experiment [3] the target is GP of authentic (wild-type) BDBV (Bundibugyo virus (BDBV)). Put plainly: cell-based or functional assay.
In experiment [4] the target is GP of authentic (wild-type) EBOV (Ebola virus (EBOV)) (UniProt P87666). Put plainly: cell-based or functional assay.
The target of experiment [5] is GP of authentic (wild-type) SUDV (Sudan virus (SUDV)) (UniProt Q66814). Kind of experiment: cell-based or functional assay.
Experiment [6] has as its target SUDV GP on rVSV particles (Sudan virus (SUDV)) (UniProt Q66814). Kind of experiment: cell-based or functional assay.
In experiment [7] the target is TAFV GP on VSV pseudotype particles (Tai Forest virus (TAFV)) (UniProt Q66810). Kind of experiment: cell-based or functional assay.
Experiment [8] deals with EBOV GPCL (cleaved GP) (Ebola virus (EBOV)) (UniProt Q05320).

rVSV-GP neutralization IC50, Authentic virus neutralization IC50 and Kd data for two molecules are collected here from patent publication US20180244758A1.

Sequence of EBOV GPCL (cleaved GP) (Ebola virus (EBOV)) (Q05320 33-190 limits assumed, chain 1 of 2): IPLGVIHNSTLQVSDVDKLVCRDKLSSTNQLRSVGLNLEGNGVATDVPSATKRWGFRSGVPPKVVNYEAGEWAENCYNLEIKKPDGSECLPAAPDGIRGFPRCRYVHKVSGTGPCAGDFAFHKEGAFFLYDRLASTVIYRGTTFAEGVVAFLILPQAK
Sequence of EBOV GPCL (cleaved GP) (Ebola virus (EBOV)) (Q05320 502-637 limits assumed, chain 2 of 2): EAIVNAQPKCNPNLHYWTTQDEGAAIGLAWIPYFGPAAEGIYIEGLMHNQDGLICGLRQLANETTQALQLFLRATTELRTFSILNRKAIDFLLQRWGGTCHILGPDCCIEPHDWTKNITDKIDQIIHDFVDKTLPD
Sequence of GP of authentic (wild-type) EBOV (Ebola virus (EBOV)) (P87666 33-676): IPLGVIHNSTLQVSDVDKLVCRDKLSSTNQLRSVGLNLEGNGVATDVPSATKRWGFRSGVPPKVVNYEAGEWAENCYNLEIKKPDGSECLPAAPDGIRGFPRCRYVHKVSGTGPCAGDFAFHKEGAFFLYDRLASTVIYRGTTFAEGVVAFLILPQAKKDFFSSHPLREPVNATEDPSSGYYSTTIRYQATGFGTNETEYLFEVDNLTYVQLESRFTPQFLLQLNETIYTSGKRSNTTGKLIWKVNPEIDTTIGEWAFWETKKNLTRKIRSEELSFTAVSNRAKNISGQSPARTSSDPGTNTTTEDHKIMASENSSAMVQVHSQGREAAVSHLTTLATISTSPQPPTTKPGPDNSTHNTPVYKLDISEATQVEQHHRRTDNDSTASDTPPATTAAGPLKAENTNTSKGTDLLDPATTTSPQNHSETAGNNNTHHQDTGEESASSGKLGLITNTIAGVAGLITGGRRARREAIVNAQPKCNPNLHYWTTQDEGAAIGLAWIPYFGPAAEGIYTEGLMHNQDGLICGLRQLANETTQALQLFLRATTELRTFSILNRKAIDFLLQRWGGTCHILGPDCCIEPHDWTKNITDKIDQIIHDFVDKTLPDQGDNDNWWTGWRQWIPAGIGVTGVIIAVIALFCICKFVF
Sequence of SUDV GP on rVSV particles (Sudan virus (SUDV)) (Q66814 33-676): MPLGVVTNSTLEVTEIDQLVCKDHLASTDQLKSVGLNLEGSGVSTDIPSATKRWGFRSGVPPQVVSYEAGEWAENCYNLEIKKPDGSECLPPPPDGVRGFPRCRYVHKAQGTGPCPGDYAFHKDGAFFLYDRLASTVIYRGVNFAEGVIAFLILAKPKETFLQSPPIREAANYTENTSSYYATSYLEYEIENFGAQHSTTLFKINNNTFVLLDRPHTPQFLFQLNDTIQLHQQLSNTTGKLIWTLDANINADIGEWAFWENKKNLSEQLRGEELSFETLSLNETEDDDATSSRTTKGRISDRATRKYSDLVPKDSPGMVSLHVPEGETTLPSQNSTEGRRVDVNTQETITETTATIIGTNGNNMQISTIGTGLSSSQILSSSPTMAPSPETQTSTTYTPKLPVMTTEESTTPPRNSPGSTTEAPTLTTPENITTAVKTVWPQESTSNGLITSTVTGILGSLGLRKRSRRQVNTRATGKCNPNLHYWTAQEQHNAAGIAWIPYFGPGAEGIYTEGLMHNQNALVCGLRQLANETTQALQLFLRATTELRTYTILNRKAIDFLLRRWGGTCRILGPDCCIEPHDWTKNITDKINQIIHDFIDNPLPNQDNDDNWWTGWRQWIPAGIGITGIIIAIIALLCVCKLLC
Sequence of GP of authentic (wild-type) SUDV (Sudan virus (SUDV)) (Q66814 33-676): as above
Sequence of TAFV GP on VSV pseudotype particles (Tai Forest virus (TAFV)) (Q66810 33-676): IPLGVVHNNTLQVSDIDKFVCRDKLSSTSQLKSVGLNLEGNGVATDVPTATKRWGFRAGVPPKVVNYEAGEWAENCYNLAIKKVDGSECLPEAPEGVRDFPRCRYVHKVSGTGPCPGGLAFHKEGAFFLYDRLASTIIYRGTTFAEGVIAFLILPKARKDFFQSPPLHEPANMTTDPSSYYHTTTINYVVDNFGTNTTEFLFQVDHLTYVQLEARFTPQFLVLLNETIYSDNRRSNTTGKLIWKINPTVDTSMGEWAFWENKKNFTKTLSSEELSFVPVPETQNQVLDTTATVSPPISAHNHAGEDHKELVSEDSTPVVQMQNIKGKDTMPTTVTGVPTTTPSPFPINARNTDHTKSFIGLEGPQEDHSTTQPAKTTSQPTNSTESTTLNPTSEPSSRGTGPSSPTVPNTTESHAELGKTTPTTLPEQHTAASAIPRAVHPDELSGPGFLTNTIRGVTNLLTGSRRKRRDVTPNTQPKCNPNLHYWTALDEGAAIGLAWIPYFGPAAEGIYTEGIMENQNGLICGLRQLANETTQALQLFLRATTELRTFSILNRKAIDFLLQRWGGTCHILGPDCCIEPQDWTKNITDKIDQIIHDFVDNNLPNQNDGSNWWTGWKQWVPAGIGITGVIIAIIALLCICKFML
Sequence of EBOV GP on rVSV particles (Ebola virus (EBOV)) (Q05320 33-676): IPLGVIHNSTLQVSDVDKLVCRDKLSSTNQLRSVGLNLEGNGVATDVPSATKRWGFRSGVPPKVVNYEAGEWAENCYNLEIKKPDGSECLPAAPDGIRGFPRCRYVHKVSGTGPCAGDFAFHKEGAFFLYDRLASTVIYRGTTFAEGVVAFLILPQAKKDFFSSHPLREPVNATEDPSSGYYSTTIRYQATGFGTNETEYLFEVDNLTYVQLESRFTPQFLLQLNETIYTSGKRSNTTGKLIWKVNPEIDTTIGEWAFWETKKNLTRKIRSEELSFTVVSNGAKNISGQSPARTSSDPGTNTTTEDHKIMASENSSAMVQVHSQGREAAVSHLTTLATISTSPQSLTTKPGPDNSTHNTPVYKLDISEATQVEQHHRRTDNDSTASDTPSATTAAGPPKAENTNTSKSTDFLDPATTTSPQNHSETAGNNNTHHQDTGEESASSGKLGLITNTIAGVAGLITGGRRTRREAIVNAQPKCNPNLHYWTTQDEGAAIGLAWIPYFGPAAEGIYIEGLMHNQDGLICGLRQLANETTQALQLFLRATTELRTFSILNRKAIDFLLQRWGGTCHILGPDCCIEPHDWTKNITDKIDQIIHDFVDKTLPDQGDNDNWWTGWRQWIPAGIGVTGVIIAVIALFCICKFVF

B1: mAb PE-64 (antibody, V domains shown)
VH: EVQLVESGGGLVKPGGSLRLSCAASGFTFSNAWMSWVRQAPGKGLEWVGRIKSKTDGGTIDYAAPVKGRFTISRDDSKNTVYLQMTSLKTEDTAVYYCTTYTEDMRYFDWLLRGGETFDYWGQGTLVTVSS
VL: DIRLTQSPSSLSASVGDRVTITCRASHYISTYLNWYQQKPGKAPKLLIYAASNLQSGVPSRFSGSGFGTDFSLTISSLQPEDFATYHCQQSYSTPGRYTFGQGTKVEIK
In the case of B1, the rVSV-GP neutralization IC50 in experiment [1] was found to be 0.4 nM; in experiment [2], 2.5 nM; in experiment [6], 40 nM; in experiment [7], 8 nM. In addition, the results for the Authentic virus neutralization IC50 in experiment [3], in experiment [4] and in experiment [5] were 1.5 nM, 0.6 nM and 120 nM, respectively.

B2: mAb PE-87 (antibody, V domains shown)
VH: QVQLVQSGVTLVQPGGSLRVSCAASGFTFSSYAMSWVRQAPGKGLEWVSAISGLGGSTYYADSVKGRFTISRDNSKNTLYLQMNSLRAEDTAVYYCAKDHRVWAAGYHFDYWGQGALVTVSS
VL: DIVLTQSPSTLSASVGDRVTITCRASQSISSWLAWYQQKPGEAPKLLISDASSLESGVPSRFSGSGSGTEFTLTISSLQPDDFATYYCQQYYSSPTFGGGTKVEIK
In turn, B2 returned a Kd in experiment [8] of under 0.001 nM.
